From publication PMC6035192, “Understanding the indirect DNA read-out specificity of I-CreI Meganuclease”

Columns and labels:
[1] = target: T1, I-CreI_3115 chain 1;I-CreI_3115 chain 2 (;, UniProt P05725;P05725 1-163;1-163, Y33G;Q38K;Q44K;R68Y;R70S;D75N;I77Y;I132V|G19S;Y33V;Q38R;S40Q;Q44D;R68A;R70S;D75K …); experiment: MST; 2 mM CaCl2; labelled DNA; MST at 25 C: 50 mM Tris pH 8.0 (I-CreI_3115; 2 or 10 mM CaCl2) or 50 mM Hepes pH 7.5 (I-CreI_D75N; 10 mM CaCl2), 300 mM NaCl, 0.5 mM TCEP, 0.05% Tween-20; conditions: protein: recombinant;recombinant; tags: ;; copies: 1;1; label: Cy5 on coding strand (5'); blunt
T1 sequence 1: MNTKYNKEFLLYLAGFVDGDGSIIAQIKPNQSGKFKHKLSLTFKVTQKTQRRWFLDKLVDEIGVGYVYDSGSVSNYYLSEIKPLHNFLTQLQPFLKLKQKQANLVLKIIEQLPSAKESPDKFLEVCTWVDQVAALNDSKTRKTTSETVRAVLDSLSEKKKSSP
T1 sequence 2: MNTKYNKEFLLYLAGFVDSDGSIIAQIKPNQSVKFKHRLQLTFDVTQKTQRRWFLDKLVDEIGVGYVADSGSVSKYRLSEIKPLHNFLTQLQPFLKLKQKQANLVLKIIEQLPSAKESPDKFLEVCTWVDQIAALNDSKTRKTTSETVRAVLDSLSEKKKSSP

I-CreI_D75N [2] = target: T2, I-CreI_D75N (UniProt P05725 1-163, D75N); experiment: crystal structure; 2 mM Mg2+; uncleaved DNA; MST at 25 C: 50 mM Tris pH 8.0 (I-CreI_3115; 2 or 10 mM CaCl2) or 50 mM Hepes pH 7.5 (I-CreI_D75N; 10 mM CaCl2), 300 mM NaCl, 0.5 mM TCEP, 0.05% Tween-20; conditions: protein: recombinant; chain copies: 2; blunt
T2 sequence: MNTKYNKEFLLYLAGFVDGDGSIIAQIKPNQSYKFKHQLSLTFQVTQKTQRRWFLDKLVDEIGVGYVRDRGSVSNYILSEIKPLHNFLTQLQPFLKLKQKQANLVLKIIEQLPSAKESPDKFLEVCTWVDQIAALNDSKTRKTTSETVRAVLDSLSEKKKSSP

I-CreI_D75N [3] = target: T2, I-CreI_D75N; experiment: crystal structure; 2 mM Ca2+; MST at 25 C: 50 mM Tris pH 8.0 (I-CreI_3115; 2 or 10 mM CaCl2) or 50 mM Hepes pH 7.5 (I-CreI_D75N; 10 mM CaCl2), 300 mM NaCl, 0.5 mM TCEP, 0.05% Tween-20; conditions: protein: recombinant; chain copies: 2; blunt; self-annealed palindrome

B1: I-CreI_3115_target (Cy5) (dsDNA)
DNA 1: TCAGACTTCTCCACAGGAGTCAGA
DNA 2: TCTGACTCCTGTGGAGAAGTCTGA
- Kd [1]: 90 nM

B2: I-CreI_D75N_target-null (dsDNA)
DNA 1: TCAAAACTGCGTACGACGTTTTGA
DNA 2: TCAAAACGTCGTACGCAGTTTTGA
- binding result (I-CreI_D75N [2]): binds

B3: I-CreI_D75N_target (dsDNA)
DNA 1: TCAAAACGTCGTACGACGTTTTGA
DNA 2: TCAAAACGTCGTACGACGTTTTGA
- binding result (I-CreI_D75N [3]): binds
